{"source": "paper PMC3621282", "origin": "cited, not measured here", "molecular_target": "VEGFR-2 (Homo sapiens) (UniProt P35968)", "sequence (P35968 20-1356)": "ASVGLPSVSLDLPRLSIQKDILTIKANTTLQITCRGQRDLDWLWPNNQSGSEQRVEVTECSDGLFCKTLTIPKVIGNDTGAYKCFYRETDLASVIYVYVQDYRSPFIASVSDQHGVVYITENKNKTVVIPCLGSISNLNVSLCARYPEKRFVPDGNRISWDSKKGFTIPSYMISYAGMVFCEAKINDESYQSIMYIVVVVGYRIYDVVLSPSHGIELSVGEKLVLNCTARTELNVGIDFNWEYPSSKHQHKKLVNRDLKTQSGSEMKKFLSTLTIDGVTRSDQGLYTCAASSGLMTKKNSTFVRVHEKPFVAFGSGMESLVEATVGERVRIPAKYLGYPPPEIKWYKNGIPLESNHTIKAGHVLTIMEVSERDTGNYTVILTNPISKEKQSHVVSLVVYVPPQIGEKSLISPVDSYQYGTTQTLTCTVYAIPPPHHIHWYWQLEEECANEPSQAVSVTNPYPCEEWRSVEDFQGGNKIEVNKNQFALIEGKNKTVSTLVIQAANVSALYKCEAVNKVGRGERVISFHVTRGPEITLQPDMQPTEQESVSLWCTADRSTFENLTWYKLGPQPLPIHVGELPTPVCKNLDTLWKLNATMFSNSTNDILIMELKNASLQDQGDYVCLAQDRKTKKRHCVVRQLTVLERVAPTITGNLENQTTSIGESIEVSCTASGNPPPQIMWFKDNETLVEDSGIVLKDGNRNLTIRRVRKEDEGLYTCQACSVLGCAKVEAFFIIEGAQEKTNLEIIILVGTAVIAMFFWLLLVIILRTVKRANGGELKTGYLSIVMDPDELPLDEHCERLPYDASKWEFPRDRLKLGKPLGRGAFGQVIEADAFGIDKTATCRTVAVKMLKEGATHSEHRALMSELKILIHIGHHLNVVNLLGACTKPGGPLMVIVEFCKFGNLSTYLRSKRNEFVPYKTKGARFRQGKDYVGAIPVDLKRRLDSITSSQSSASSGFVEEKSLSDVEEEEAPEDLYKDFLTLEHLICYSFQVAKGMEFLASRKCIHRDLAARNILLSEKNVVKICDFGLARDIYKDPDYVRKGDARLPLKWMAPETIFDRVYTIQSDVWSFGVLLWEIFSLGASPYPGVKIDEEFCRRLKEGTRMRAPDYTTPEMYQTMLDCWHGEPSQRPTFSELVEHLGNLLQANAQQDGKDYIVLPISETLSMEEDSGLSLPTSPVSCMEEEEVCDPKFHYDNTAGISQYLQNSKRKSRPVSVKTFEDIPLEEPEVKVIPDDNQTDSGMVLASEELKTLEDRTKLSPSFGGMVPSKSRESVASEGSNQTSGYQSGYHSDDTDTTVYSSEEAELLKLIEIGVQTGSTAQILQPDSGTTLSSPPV", "note": "pKd: −log10 of the molar value."}
{"substance": "VEGF (from UniProt P15692)", "values": [{"measurement": "pKd", "value": 10.00}]}
